Non-standard residues stand in square brackets, D forms with d. No end group written: not given here. pGlu = O=C1CC[C@@H](C(=O)O)N1

Data on five proteins can be found in article PMC10394066, “Polymorphic amyloid nanostructures of hormone peptides involved in glucose homeostasis display reversible amyloid formation” (Nature Communications, 2023).

Series [1] deals with the molecule itself. The series is described as follows: FTIR; 6 mM peptide in water, pH adjusted from 7.2 to 4.2; amide I band 1625–1630 cm^−1; bio-ATR cell.
Series [2] concerns the molecule itself. In words: crystal structure; amyloid-like single crystals grown from peptide solutions (water, water/ACN/TFA, water/EtOH or 0.1 M citrate pH 4.0; pH 2-7; 4-37 °C; conditions of each polymorph in Table 1); data at 100 K, Cu Kα.
Series [3] deals with the molecule itself. In words: far-UV CD; 0.15–0.20 mM peptide in distilled water, acidic pH set with HCl/NaOH, stirred 500–600 rpm at 37 °C, measured at 0–168 h at 25 °C; U to β/β’-type spectral shift.
Series [4] deals with the molecule itself. The series is described as follows: far-UV CD; 0.15–0.20 mM peptide in distilled water, physiological pH and above (above pH 5), stirred 500–600 rpm at 37 °C, measured at 25 °C for up to weeks.

B1: APR^GLP1 hexapeptide EFIAWL (aggregation-prone region of glucagon-like peptide 1) (peptide)
peptide: EFIAWL
notes: aggregation-prone hexapeptide segment of human glucagon-like peptide 1 (GLP-1); source: synthetic peptide (flow solid-phase synthesis, Fmoc/tBu; RP-HPLC purified)
Consider B1, for which, in series [1], the binding result is “binds”.

B2: pEFIAWL (APR^GLP1 with N-terminal pyroglutamic acid) (peptide)
peptide: [pGlu]FIAWL
notes: aggregation-prone hexapeptide segment of human GLP-1; residue 1 is pyroglutamic acid; Both EFIAWL and pEFIAWL were present in the crystallization samples; the crystal holds pEFIAWL; also called pEFIAWL (GLP-1); APR^GLP1 (in the crystal); source: formed from synthetic EFIAWL by spontaneous ring closure in the crystallization sample (pH ≈ 2, 37 °C)
For B2, the binding result in series [2] is “binds”.

B3: APR^GLP2 hexapeptide DFINWL (aggregation-prone region of glucagon-like peptide 2) (peptide)
peptide: DFINWL
notes: aggregation-prone hexapeptide segment of human glucagon-like peptide 2 (GLP-2); free termini (no terminal protection); also called DFINWL (GLP-2); source: synthetic peptide (flow solid-phase synthesis, Fmoc/tBu; RP-HPLC purified)
Turning to B3, the binding result in series [2] is “binds”.

B4: Ac-EFIAWL (N-terminally acetylated APR^GLP1) (peptide)
peptide: Ac-EFIAWL
notes: aggregation-prone hexapeptide segment of human GLP-1, N-terminally acetylated; also called Ac-EFIAWL (GLP-1); source: synthetic peptide
Consider B4, for which, in series [3], the binding result is listed as “binds”.

B5: APR^Tc5b hexapeptide LYIQWL (synthetic exendin-like APR of the de novo designed Tc5b and E19) (peptide)
peptide: LYIQWL
notes: hexapeptide segment of the de novo designed Trp-cage exendin derivatives Tc5b and E19; non-natural, no acidic side chain; also called LYIQWL (Tc5b, E19); source: synthetic peptide (flow solid-phase synthesis, Fmoc/tBu; RP-HPLC purified)
As to B5, the binding result in series [4] is reported as “binds”.
